Assay results reported in US5576294A, “Human Kunitz-type protease inhibitor variant” (Novo Nordisk A/S, priority 1992, dated 1996).
Each block holds one substance with its values, some of them ahead of it.

Columns and labels:
[1] = high doses; cardiac surgery including cardiopulmonary bypass operations; cited from earlier work
[2] = tested on: collagenase; conditions: Wenzel and Tschesche 1981; cited from earlier work
[3] = biological target: T1, granulocyte elastase (Homo sapiens, UniProt P08246); conditions: Wenzel and Tschesche 1981; cited from earlier work
T1 sequence (P08246 30-267): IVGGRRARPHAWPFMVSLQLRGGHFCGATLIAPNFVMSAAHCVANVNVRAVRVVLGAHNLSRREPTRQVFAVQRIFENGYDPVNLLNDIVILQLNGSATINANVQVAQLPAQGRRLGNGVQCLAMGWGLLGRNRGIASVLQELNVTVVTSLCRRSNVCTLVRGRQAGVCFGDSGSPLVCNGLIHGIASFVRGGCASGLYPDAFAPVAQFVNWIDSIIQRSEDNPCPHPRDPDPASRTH

[4] = biological target: T2, human factor Xa (Homo sapiens, UniProt P00742); assay: Inhibition of serine proteinases: Factor Xa; assay type: biochemical; conditions: Example 3; 30 min incubation; read-out: Ki, factor X.
T2 construct: human factor Xa was a gift from Dr. W. Kisiel; gift from Dr. W. Kisiel (Albuquerque, N.M., U.S.A.)
Experimental: (§1) KFN 1593 was purified from yeast culture medium as described in example 1. The concentration of KFN 1593 was determined using 1% E280 nm =8.3 and Mw =6500. Porcine trypsin was from Novo Nordisk (Bagsv.ae butted.rd, Denmark), bovine chymotrypsin (TLCK treated) and porcine pancreatic kallikrein was from Sigma Chemical Co (St. Louis, Mo., U.S.A.), human plasmin and human plasma kallikrein was from Kabi (Stockholm, Sweden).
(§2) Human neutrophil elastase and cathepsin G was purified from extracts of PMNs according to the method described by Baugh and Travis (Biochemistry 15 (1976) 836-843). Peptidyl nitroanilide substrates, S2251, S2586, S2266, S2302 were from Kabi (Stockholm, Sweden). M4765 and S7388 was from Sigma Chemical Co (St. Louis, Mo., U.S.A.) and FXa-1 was from NycoMed (Oslo, Norway).
(§3) Serine proteinases were incubated with various concentrations of KFN 1593 for 30 min. Substrate was then added and residual proteinase activity was measured at 405 nm.
The three TFPI (domain II) variants were purified from yeast culture medium. Their concentrations were determined from the absorbance at 214 nm using BPTI as a standard. The final concentration was determined by titration with trypsin. […]
(§4) Serine proteinases were incubated with various concentrations of Kunitz Domain variant for 30 min. Substrate (0.6 mM) was then added and residual proteinase activity was measured at 405 nm.

[5] = biological target: T3, plasma kallikrein (Homo sapiens, UniProt P03952); assay: Inhibition of serine proteinases: plasma kallikrein; assay type: biochemical; conditions: Example 3; 30 min incubation, FIG. 3
Experimental: as §1, §2, §3
(§5) The three TFPI (domain II) variants were purified from yeast culture medium. Their concentrations were determined from the absorbance at 214 nm using BPTI as a standard. The final concentration was determined by titration with trypsin. Porcine trypsin and human recombinant proteins, factor VIIa, activated protein C (ACP), and tPA were obtained from Novo Nordisk A/S (Bagsvaerd, Denmark), so was human thrombin. Bovine chymotrypsin and glandular kallikrein were obtained from Sigma Chemical Co. (St. Louis, Mo., U.S.A.). Truncated human recombinant tissue factor was obtained from Corvas (San Diego, Calif., U.S.A.). Human neutrophil cathepsin G was purified from extracts of PMNs according to the method described by Baugh and Travis (Biochemistry 15 (1976) 836-843). Human plasmin was from Kabi (Stockholm, Sweden), uPA was from Serono (Milan, Italy), human factor Xa was a gift from Dr. W. Kisiel (Albuquerque, N.M., U.S.A.), and human plasma kallikrein was a gift from Dr. I Schousboe (Copenhagen, Denmark).
(§6) Peptidyl nitroanilide substrates, S2251, S2302, S2266, S2586, S2288, S2444, S2366, and S2238 were from Kabi (Stockholm, Sweden). S7388 and M4765 were from Sigma Chemical Co. (St. Louis, Mo., U.S.A.) and FXa-1 was from Nycomed (Oslo, Norway).
as §4
Target sequence in this assay (P03952 391-638 limits assumed): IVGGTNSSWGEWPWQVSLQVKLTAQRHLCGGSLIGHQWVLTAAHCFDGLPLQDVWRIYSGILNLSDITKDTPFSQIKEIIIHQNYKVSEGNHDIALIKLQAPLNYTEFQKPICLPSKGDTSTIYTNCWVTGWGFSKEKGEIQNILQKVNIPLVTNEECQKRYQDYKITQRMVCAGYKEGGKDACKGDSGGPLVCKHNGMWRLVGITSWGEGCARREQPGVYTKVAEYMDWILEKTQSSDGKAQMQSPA
Target sequence in this assay (P03952 20-390 limits assumed): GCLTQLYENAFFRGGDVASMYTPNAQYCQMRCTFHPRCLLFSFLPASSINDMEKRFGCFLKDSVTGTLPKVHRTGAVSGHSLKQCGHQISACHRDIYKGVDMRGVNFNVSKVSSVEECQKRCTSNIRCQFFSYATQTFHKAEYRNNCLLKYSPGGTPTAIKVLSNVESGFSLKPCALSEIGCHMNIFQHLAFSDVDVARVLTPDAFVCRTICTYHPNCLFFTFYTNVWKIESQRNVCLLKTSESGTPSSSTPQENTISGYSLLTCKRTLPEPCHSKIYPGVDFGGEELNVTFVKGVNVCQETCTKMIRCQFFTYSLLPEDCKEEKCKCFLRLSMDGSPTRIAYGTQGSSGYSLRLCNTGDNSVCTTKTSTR

[6] = biological target: T4, Human neutrophil elastase (Homo sapiens, UniProt P08246); assay: Inhibition of serine proteinases: neutrophil elastase; assay type: biochemical; conditions: Example 3; 30 min incubation, FIG. 3
T4 construct: Human neutrophil elastase and cathepsin G was purified from extracts of PMNs; from tissue; host or cells: extracts of human polymorphonuclear leukocytes (PMNs), method of Baugh and Travis
T4 sequence (P08246 30-267): T1 sequence (P08246 30-267)
Experimental: as §1, §2
Serine proteinases were incubated with various concentrations of KFN 1593 for 30 min. Substrate was then added and residual proteinase activity was measured at 405 nm. […]
(§7) The four variants were purified from yeast culture medium. Their concentrations were determined from the absorbance at 214 nm using BTPI as a standard. Porcine trypsin was obtained from Novo Nordisk A/S (Bagsvaerd, Denmark, bovine chymotrypsin (TLCK treated) was obtained from Sigma Chemical Co. (St. Louis, Mo., U.S.A.). Truncated human recombinant tissue factor was obtained from Corvas (San Diego, Calif., U.S.A.). Human plasmin was from Kabi (Stockholm, Sweden). Human neutrophil cathepsin G and elastase were purified from extracts of PMNs according to the method described by Baugh and Travis (Biochemistry 15 (1976) 836-843).
(§8) Peptidyl nitroanilide substrates, S2251, S2586 were from Kabi (Stockholm, Sweden). S7388 and M4765 were from Sigma Chemical Co. (St. Louis, Mo., U.S.A.).
(§9) Serine proteinases were incubated with various concentrations of the variants for 30 min. Substrate ([…]) was then added and residual proteinase activity was measured at 405 nm.

[7] = biological target: T5, Human neutrophil cathepsin G (Homo sapiens, UniProt P08311); assay: Inhibition of serine proteinases: neutrophil cathepsin G; assay type: biochemical; conditions: Example 3; 30 min incubation, FIG. 3
T5 construct: Human neutrophil cathepsin G was purified from extracts of PMNs; from tissue; host or cells: extracts of human polymorphonuclear leukocytes (PMNs), method of Baugh and Travis
T5 sequence (P08311 21-255): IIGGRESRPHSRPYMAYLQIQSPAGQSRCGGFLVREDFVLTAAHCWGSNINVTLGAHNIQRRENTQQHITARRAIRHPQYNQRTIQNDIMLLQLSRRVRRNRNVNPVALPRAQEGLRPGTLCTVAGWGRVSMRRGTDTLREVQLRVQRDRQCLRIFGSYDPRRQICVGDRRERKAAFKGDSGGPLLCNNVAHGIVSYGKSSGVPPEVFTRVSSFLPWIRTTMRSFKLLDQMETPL
Experimental: as §1, §2, §3, §5, §6, §4, §7, §8, §9

[8] = biological target: Human plasmin (Homo sapiens, UniProt P00747); assay: Inhibition of serine proteinases: plasmin; assay type: biochemical; parameters: human plasmin and human plasma kallikrein was from Kabi (Stockholm, Sweden); purchased Kabi (Stockholm, Sweden); conditions: Example 3; 30 min incubation, FIG. 2
Experimental: as §1, §2, §3, §5, §6, §4, §7, §8, §9

[9] = biological target: T6, glandular kallikrein (porcine pancreatic kallikrein) (Sus scrofa, UniProt P00752); assay: Inhibition of serine proteinases: glandular kallikrein; assay type: biochemical; conditions: Example 3; 30 min incubation, FIG. 3
T6 construct: purchased Sigma Chemical Co (St. Louis, Mo., U.S.A.)
Experimental: as §1, §2, §3, §5, §6, §4

[10] = biological target: T3, plasma kallikrein; conditions: cf. WO 89/10374; cited from earlier work
Target sequence in this assay (P03952 20-638, species assumed): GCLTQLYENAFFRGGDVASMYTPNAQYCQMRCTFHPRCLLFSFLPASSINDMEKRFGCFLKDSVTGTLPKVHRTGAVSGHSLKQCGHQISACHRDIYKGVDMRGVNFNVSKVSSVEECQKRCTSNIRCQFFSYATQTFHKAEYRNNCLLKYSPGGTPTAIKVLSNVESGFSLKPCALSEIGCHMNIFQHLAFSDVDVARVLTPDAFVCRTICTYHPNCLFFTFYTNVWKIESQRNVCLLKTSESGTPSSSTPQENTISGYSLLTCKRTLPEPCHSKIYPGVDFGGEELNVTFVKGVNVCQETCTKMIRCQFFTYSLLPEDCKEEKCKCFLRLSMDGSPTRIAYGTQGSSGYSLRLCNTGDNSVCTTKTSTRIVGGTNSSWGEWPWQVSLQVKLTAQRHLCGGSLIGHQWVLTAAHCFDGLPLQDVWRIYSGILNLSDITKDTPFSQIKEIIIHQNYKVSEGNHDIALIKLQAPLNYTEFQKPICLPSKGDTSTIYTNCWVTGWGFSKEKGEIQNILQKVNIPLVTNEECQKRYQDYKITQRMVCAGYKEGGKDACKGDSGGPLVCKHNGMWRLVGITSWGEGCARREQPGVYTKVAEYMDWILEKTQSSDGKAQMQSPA

T2 sequence (P00742 235-488 limits assumed): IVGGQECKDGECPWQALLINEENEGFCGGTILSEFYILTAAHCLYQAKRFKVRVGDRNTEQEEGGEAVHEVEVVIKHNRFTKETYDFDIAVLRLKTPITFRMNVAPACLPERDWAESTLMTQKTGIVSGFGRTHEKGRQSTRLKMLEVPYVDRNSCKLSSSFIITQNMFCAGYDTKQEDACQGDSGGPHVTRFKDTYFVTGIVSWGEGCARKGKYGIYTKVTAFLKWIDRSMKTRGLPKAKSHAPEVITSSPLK
T2 sequence (P00742 41-179 limits assumed): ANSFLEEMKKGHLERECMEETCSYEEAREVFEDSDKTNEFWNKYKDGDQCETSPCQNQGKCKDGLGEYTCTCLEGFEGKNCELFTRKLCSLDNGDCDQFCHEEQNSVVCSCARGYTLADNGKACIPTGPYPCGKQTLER
Sequence of Human plasmin (P00747 581-810 limits assumed): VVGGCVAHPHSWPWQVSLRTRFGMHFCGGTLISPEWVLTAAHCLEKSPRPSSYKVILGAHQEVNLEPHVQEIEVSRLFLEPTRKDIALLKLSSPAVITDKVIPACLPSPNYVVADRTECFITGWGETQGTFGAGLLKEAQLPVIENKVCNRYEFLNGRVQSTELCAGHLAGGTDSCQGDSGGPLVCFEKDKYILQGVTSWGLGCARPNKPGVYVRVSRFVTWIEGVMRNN
Sequence of Human plasmin (P00747 97-580 limits assumed): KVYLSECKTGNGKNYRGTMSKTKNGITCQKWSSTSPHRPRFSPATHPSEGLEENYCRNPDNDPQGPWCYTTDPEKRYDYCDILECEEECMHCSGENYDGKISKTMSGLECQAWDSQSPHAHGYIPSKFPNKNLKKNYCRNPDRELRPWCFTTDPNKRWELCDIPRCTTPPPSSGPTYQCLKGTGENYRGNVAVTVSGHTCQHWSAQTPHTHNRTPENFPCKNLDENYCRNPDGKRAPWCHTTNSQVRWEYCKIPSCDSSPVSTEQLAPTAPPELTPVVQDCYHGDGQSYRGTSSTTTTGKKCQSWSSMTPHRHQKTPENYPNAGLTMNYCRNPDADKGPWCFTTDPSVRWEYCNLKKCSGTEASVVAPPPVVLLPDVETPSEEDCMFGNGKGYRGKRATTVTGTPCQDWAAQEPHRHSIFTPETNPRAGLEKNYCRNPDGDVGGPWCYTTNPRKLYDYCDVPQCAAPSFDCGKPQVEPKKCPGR
T6 sequence (P00752 8-246): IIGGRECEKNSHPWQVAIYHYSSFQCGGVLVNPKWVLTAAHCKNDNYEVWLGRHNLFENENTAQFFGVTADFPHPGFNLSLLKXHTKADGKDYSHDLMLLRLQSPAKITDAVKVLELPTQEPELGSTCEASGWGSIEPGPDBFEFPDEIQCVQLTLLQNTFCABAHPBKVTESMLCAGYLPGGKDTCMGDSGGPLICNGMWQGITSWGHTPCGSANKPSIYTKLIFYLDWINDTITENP

Substance: aprotinin
blood loss in connection with cardiac surgery [1]: significantly reduces blood loss

Substance: aprotinin(1-58, Val15)
effect on collagenase (in words) [2]: inhibitory effect
effect on granulocyte elastase (in words) [3]: relatively high selectivity

Ki [4]: 150 nM
inhibition of kallikreins (in words): plasma kallikrein [5]: essentially absent
inhibition of neutrophil elastase (in words) [6]: moderate inhibition
inhibition of Cathepsin G (in words) [7]: essentially absent
inhibition of plasmin (in words) [8]: moderate inhibition
inhibition of kallikreins (in words): glandular kallikrein [9]: essentially absent
Substance: KFN 1593: Unmodified TFPI Kunitz domain II (second Kunitz domain of tissue factor pathway inhibitor), produced from yeast strain KFN-1593 (RFESLEECKKMCTRDNANRIIKTTLQQEKPDFCFLEEDPGICRGYITRYFYNNQTKQC)

Substance: aprotinin (3-58, Arg15, Ala17, Ser42)
plasma kallikrein inhibitory effect (in words) [10]: excellent plasma kallikrein inhibitory effect
